From patent US20200308575A1 (TWIST BIOSCIENCE, published 2020)
Where a chain is given by its changes, count along the chain named.

B1: PD1-45 (antibody, V domains shown)
VH: EVQLVESGGGLVQPGRSLRLSCAASGFTFDDYALHWVRQAPGKDLEWVSGISWNAGSQGYADSVKGRFTISRDNAKNSLYLQMNSLRAEDTALYYCVREKGPGLTGSTADYYGLDAWGQGTMVTVSS
B2: PD1-1 (antibody, V domains shown)
VH: QVQLVQSGAEVKKPGASVKVSCKASGYTFSHYGISWVRQAPGQGLEWMGWVSAYSGNTRYAQKLQGRVTMTTDTSTSTAYMELRSLRSDDTAVYYCARDATYSSGSGYWGQGTLVTVSS
VL: SYELMQPPSVSVSPGQTARITCSGDALPTQYAYWYQQKPGQAPVLVIYQDNERPSGIPERFSGSSSGTTVTLTISGVQAEDEADYYCQSADNSITYRVFGGGTKLTVL
notes: IgG in the assay
B3: PD1-7 (antibody, V domains shown)
VH: B2 VH with S30T, S35T, V51I, N57S, R59N, T101D, S104I
VL: B2 VL with T29N, Y33F, Q49K
notes: IgG in the assay
B4: PD1-2 (antibody, V domains shown)
VH: B2 VH with T28S, H31N, R59N, T101D, S103A
VL: B2 VL with A26E, T29N, Q49K, N51T, E52Q
notes: IgG in the assay
B5: PD1-8 (antibody, V domains shown)
VH: B2 VH with V51I, A53P, R59K, A100N, T101D
VL: B2 VL with A26E, T29K, Q49K, P54A
notes: IgG in the assay

These binders were tested against T1, program cell death protein 1 (PD-1) (UniProt Q15116 25-167, limits assumed) (assay: SPR (Carterra LSA), IgG, monovalent affinity).
T1 sequence (Q15116 25-167 limits assumed): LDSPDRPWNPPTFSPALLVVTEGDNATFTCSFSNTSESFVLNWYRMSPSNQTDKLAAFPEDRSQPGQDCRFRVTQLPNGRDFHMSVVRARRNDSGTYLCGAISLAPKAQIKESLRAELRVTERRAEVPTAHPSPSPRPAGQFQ

Which Kd does the source give for B1 here?
Its Kd is 243 nM.

For B2, which Kd is on record?
Its Kd is 4.5 nM.

With B3 as the binder, how does the Kd read?
Its Kd is 10.5 nM.

With B4 as the binder, how does the Kd read?
The Kd was 9.8 nM.

Which Kd does the source give for B5 here?
The Kd was 78.1 nM.

Each binder was assayed against T1, program cell death protein 1 (PD-1) (assay: cell-based or functional assay).

With B2 as the binder, how does the “Bmax (RU) (PD-1/PD-L1 blockade assay)” value read?
The value was 693 RU.

And the “IC50 (PD-1/PD-L1 blockade assay)” value?
The value was 0.434 nM.

With B3 as the binder, how does the “Bmax (RU) (PD-1/PD-L1 blockade assay)” value read?
Its value is 642 RU.

What about the “IC50 (PD-1/PD-L1 blockade assay)” value of the same binder?
The value was 0.896 nM.

B4 was tested. Which “Bmax (RU) (PD-1/PD-L1 blockade assay)” value did it give?
Its value is 661 RU.

And the “IC50 (PD-1/PD-L1 blockade assay)” value?
The value was 0.848 nM.

How did the “Bmax (RU) (PD-1/PD-L1 blockade assay)” value turn out when B5 was run?
Its value is 436 RU.

What about the “IC50 (PD-1/PD-L1 blockade assay)” value of the same binder?
The value was 1.97 nM.

Biological target: T1, program cell death protein 1 (PD-1)
Test: SPR (Carterra LSA), IgG, monovalent affinity
Remark: another data set of the same source

For B2, which Kd is on record?
Its Kd is 4.52 nM.
